Measured values reported in patent US20260116991A1 (HAINAN SIMCERE ZAIMING PHARMACEUTICAL, published 2026).
Numbering of substitutions follows the chain as printed. Values belong to the binder of their own block, whether it stands above or below them.

Columns and labels:
monkey GPC3-His protein [1] = target: T1, monkey GPC3-His protein (monkey); test: ELISA, monkey GPC3-His coated; antibody 2.67 nM
T1 construct: Bought protein; also called monkey GPC3 protein
Procedure: (§1) The specific method is described as follows: The antigen protein was diluted with PBS to a final concentration of 1 μg/mL, and the diluent was added to a 96-well ELISA plate at 50 μL/well. The plate was sealed with a plastic film and incubated at 4° C. overnight, washed twice with PBS the next day, and a blocking solution [PBS+2% (w/w) BSA] was added for blocking at room temperature for 2 h. […] After incubation at 37° C. for 2 h, the plate was washed 3 times with PBS. A horseradish peroxidase (HRP)-labeled secondary antibody (purchased from Merck, Cat. No. AP113P) was added for incubation at 37° C. for 1 h, and the plate was washed 5 times with PBS. A TMB substrate was added at 50 μL/well for incubation at room temperature for 10 min, then a stop solution (1.0M HCl) was added at 50 μL/well.

monkey GPC3-His protein [2] = target: T1, monkey GPC3-His protein; test: ELISA, monkey GPC3-His coated; antibody 66.66 nM
Procedure: as §1

monkey GPC3-His protein [3] = target: T1, monkey GPC3-His protein; test: ELISA, monkey GPC3-His coated; antibody 0.53 nM
Procedure: as §1

monkey GPC3-His protein [4] = target: T1, monkey GPC3-His protein; test: ELISA, monkey GPC3-His coated; antibody 0.0008 nM
Procedure: as §1

monkey GPC3-His protein [5] = target: T1, monkey GPC3-His protein; test: ELISA, monkey GPC3-His coated; antibody 0.11 nM
Procedure: as §1

monkey GPC3-His protein [6] = target: T1, monkey GPC3-His protein; test: ELISA, monkey GPC3-His coated; antibody 0.004 nM
Procedure: as §1

GPC3 on HepG2 cells = target: T2, GPC3 on HepG2 cells (human, UniProt P51654 25-554); test: FACS on HepG2 cells
T2 construct: whole, on cells; also called glypican-3

monkey GPC3-His protein [7] = target: T1, monkey GPC3-His protein; test: ELISA, monkey GPC3-His coated; antibody 13.33 nM
Procedure: as §1

monkey GPC3-His protein [8] = target: T1, monkey GPC3-His protein; test: ELISA, monkey GPC3-His coated; antibody 0.02 nM
Procedure: as §1

murine GPC3-his protein [9] = target: T3, murine GPC3-his protein (murine, UniProt Q8CFZ4 25-558, limits assumed); test: ELISA, murine GPC3-his coated; antibody 0.53 nM
T3 construct: Bought protein; also called mouse GPC3 protein; murine GPC3 protein; not shown: His tag
T3 sequence (Q8CFZ4 25-558 limits assumed): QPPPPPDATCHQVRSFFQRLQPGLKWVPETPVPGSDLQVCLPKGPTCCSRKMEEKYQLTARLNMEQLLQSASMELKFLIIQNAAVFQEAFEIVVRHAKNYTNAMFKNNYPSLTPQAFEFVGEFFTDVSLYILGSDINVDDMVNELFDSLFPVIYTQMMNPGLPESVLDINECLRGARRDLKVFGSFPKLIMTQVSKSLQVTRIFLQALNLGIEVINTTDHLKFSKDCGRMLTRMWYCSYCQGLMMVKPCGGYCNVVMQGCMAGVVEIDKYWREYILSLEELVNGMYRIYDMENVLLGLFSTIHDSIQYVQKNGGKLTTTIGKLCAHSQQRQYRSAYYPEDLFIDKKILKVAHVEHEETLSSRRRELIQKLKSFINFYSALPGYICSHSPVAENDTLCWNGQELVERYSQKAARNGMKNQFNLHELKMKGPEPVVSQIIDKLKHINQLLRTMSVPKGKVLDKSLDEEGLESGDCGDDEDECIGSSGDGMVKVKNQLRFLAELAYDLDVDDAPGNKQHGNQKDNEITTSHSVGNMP

murine GPC3-his protein [10] = target: T3, murine GPC3-his protein; test: ELISA, murine GPC3-his coated; antibody 0.0008 nM
Procedure: as §1

murine GPC3-his protein [11] = target: T3, murine GPC3-his protein; test: ELISA, murine GPC3-his coated; antibody 2.67 nM
Procedure: as §1

murine GPC3-his protein [12] = target: T3, murine GPC3-his protein; test: ELISA, murine GPC3-his coated; antibody 13.33 nM
Procedure: as §1

murine GPC3-his protein [13] = target: T3, murine GPC3-his protein; test: ELISA, murine GPC3-his coated; antibody 66.66 nM
Procedure: as §1

murine GPC3-his protein [14] = target: T3, murine GPC3-his protein; test: ELISA, murine GPC3-his coated; antibody 0.02 nM
Procedure: as §1

murine GPC3-his protein [15] = target: T3, murine GPC3-his protein; test: ELISA, murine GPC3-his coated; antibody 0.11 nM
Procedure: as §1

murine GPC3-his protein [16] = target: T3, murine GPC3-his protein; test: ELISA, murine GPC3-his coated; antibody 0.004 nM
Procedure: as §1

OD450 nm (monkey GPC3-His protein [1]): 1.11
OD450 nm (monkey GPC3-His protein [2]): 1.16
OD450 nm (monkey GPC3-His protein [3]): 1.09
OD450 nm (monkey GPC3-His protein [4]): 0.107
OD450 nm (monkey GPC3-His protein [5]): 0.949
OD450 nm (monkey GPC3-His protein [6]): 0.215
EC50 (GPC3 on HepG2 cells): 1.01 nM
Max MFI (GPC3 on HepG2 cells): 4800
OD450 nm (monkey GPC3-His protein [7]): 1.16
OD450 nm (monkey GPC3-His protein [8]): 0.664
B3: hAb005LH1L1b (antibody, human IgG1, V domains shown)
VH: EVQLVQSGAEVKKPGASVKVSCKASGYTFTDYEMHWVRQAPGQGLEWMGAIDPETGNTAYIQKFKGRVTMTTDKSTSTAYMELRSLRSDDTAVYYCTRFYSYSHWGQGTTVTVSS
VL: DIVMTQTPLSLPVTPGEPASISCRSSQSLVHSNRNTYLHWYLQKPGQSPQLLIYKVSNRFSGVPDRFSGSGSGTDFTLKISRVEAEDVGVYYCSQNTHVPPTFGGGTKVEIK
notes: Humanized F3.54.12, H1+L1b

OD450 nm (murine GPC3-his protein [9]): 2.29
OD450 nm (murine GPC3-his protein [10]): 0.092
OD450 nm (monkey GPC3-His protein [1]): 2.44
OD450 nm (murine GPC3-his protein [11]): 2.49
OD450 nm (monkey GPC3-His protein [2]): 2.34
OD450 nm (monkey GPC3-His protein [3]): 2.19
OD450 nm (monkey GPC3-His protein [4]): 0.073
OD450 nm (monkey GPC3-His protein [5]): 1.44
OD450 nm (murine GPC3-his protein [12]): 2.44
OD450 nm (monkey GPC3-His protein [6]): 0.132
OD450 nm (murine GPC3-his protein [13]): 2.45
OD450 nm (murine GPC3-his protein [14]): 0.67
OD450 nm (murine GPC3-his protein [15]): 1.49
OD450 nm (murine GPC3-his protein [16]): 0.206
OD450 nm (monkey GPC3-His protein [7]): 2.42
OD450 nm (monkey GPC3-His protein [8]): 0.437
B6: hAb001H1aL1a (antibody, human IgG1, V domains shown)
VH: EVQLVESGGGLVQPGGSLRLSCAASGFSFNTNAMNWVRQAPGKGLEWVGRIRSKSNNYATYYADSVKGRFTISRDDSKNSLYLQMNSLKTEDTAVYYCVRDGYYVLFAYWGQGTLVTVSS
VL: DIVMTQTPLSLPVTPGEPASISCRFSQSIVNSDGNTYLEWFLQKPGQSPQLLIYKVSNRFSGVPDRFSGSGSGTDFTLKISRVEAEDVGVYYCFQGSHVPFTFGQGTKLEIK
notes: Humanized F2.169.2, H1a+L1a

Continued, binder first:

B1: hAb007LH2L1b (antibody, human IgG1, V domains shown)
VH: EVQLVQSGAEVKKPGSSVKVSCKASGYTFTDYEMHWVRQAPGQGLEWMGTIDPETGNTAYNQKFKGRVTITADKSTSTAYMELSSLRSEDTAVYYCTRPYSLTYWGQGTLVTVSS
VL: B6 VL with F25S, I29F, N31H, D33N, G34R, N35D, E39Q, F41Y, F101Y
notes: Humanized F3.81.19, H2+L1b
OD450 nm (monkey GPC3-His protein [1]): 2.35
OD450 nm (monkey GPC3-His protein [2]): 2.61
OD450 nm (monkey GPC3-His protein [3]): 2.09
OD450 nm (monkey GPC3-His protein [4]): 0.08
OD450 nm (monkey GPC3-His protein [5]): 0.967
OD450 nm (monkey GPC3-His protein [6]): 0.127
EC50 (GPC3 on HepG2 cells): 9.53 nM
Max MFI (GPC3 on HepG2 cells): 5320
OD450 nm (monkey GPC3-His protein [7]): 2.56
OD450 nm (monkey GPC3-His protein [8]): 0.32

B2: hAb001H1L1 (antibody, human IgG1, V domains shown)
VH: B6 VH with G68D
VL: B6 VL with D33N
notes: Humanized F2.169.2, H1+L1
OD450 nm (murine GPC3-his protein [9]): 2.8
OD450 nm (murine GPC3-his protein [10]): 0.239
OD450 nm (monkey GPC3-His protein [1]): 2.54
OD450 nm (murine GPC3-his protein [11]): 2.69
OD450 nm (monkey GPC3-His protein [2]): 2.55
OD450 nm (monkey GPC3-His protein [3]): 2.46
OD450 nm (monkey GPC3-His protein [4]): 0.198
OD450 nm (monkey GPC3-His protein [5]): 1.96
OD450 nm (murine GPC3-his protein [12]): 2.82
OD450 nm (monkey GPC3-His protein [6]): 0.373
OD450 nm (murine GPC3-his protein [13]): 2.64
OD450 nm (murine GPC3-his protein [14]): 1.32
OD450 nm (murine GPC3-his protein [15]): 2.31
OD450 nm (murine GPC3-his protein [16]): 0.48
OD450 nm (monkey GPC3-His protein [7]): 2.55
OD450 nm (monkey GPC3-His protein [8]): 1.08

B4: hAb001H1aL1b (antibody, human IgG1, V domains shown)
VH: B6 VH
VL: B6 VL with D33N, G34A
notes: Humanized F2.169.2, H1a+L1b
OD450 nm (murine GPC3-his protein [9]): 2.52
OD450 nm (murine GPC3-his protein [10]): 0.185
OD450 nm (monkey GPC3-His protein [1]): 2.39
OD450 nm (murine GPC3-his protein [11]): 2.68
OD450 nm (monkey GPC3-His protein [2]): 2.59
OD450 nm (monkey GPC3-His protein [3]): 2.39
OD450 nm (monkey GPC3-His protein [4]): 0.144
OD450 nm (monkey GPC3-His protein [5]): 1.99
OD450 nm (murine GPC3-his protein [12]): 2.73
OD450 nm (monkey GPC3-His protein [6]): 0.347
OD450 nm (murine GPC3-his protein [13]): 2.76
OD450 nm (murine GPC3-his protein [14]): 1.15
OD450 nm (murine GPC3-his protein [15]): 2.05
OD450 nm (murine GPC3-his protein [16]): 0.346
OD450 nm (monkey GPC3-His protein [7]): 2.54
OD450 nm (monkey GPC3-His protein [8]): 1.02

B5: hAb001H1L1a (antibody, human IgG1, V domains shown)
VH: B6 VH with G68D
VL: B6 VL
notes: Humanized F2.169.2, H1+L1a
OD450 nm (murine GPC3-his protein [9]): 2.37
OD450 nm (murine GPC3-his protein [10]): 0.117
OD450 nm (monkey GPC3-His protein [1]): 2.27
OD450 nm (murine GPC3-his protein [11]): 2.49
OD450 nm (monkey GPC3-His protein [2]): 2.16
OD450 nm (monkey GPC3-His protein [3]): 2.08
OD450 nm (monkey GPC3-His protein [4]): 0.068
OD450 nm (monkey GPC3-His protein [5]): 1.23
OD450 nm (murine GPC3-his protein [12]): 2.57
OD450 nm (monkey GPC3-His protein [6]): 0.211
OD450 nm (murine GPC3-his protein [13]): 2.58
OD450 nm (murine GPC3-his protein [14]): 0.657
OD450 nm (murine GPC3-his protein [15]): 1.66
OD450 nm (murine GPC3-his protein [16]): 0.356
OD450 nm (monkey GPC3-His protein [7]): 2.37
OD450 nm (monkey GPC3-His protein [8]): 0.39
